Measurements: the supplement of paper PMC7125110
± gives the standard error. Variants at the floor of the assay were thinned out.

B1: glmS ribozyme (parent)
chain: AUAAAAGCGCCAGAACUACAGAAAUGUAGUUGACGAGGAGGAGGUUUAUCGAAUUUUCGGCGGAUGCCUCCAAA

Columns and labels:
Settings in all cases: with glucosamine-6-phosphate
glucosamine-6-phosphate [1] = variants of: B1; experiment: self-cleavage kobs at 40 uM GlcN6P; higher = faster cleavage; RNA array
In short: (§1)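 Using a hybridised Cy3 probe at 37 °C, barcoded ribozyme variants transcribed in situ by E. coli RNA polymerase on sequenced MiSeq chips were monitored across tiles imaged over ~14 h. The flow contained glucosamine-6-phosphate from 40 μM to 10 mM in HEPES/KCl/Mg(OAc)2 buffer. Signals were normalised to baseline and to non-cleaving reference variants before per-tile medians were fit to one- or two-exponential decays to yield kobs. Weighted Michaelis–Menten fits across concentrations gave kcat and KM.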

glucosamine-6-phosphate [2] = variants of: B1; experiment: self-cleavage kobs at 640 uM GlcN6P; higher = faster cleavage; RNA array
In short: as §1

glucosamine-6-phosphate [3] = variants of: B1; experiment: self-cleavage kobs at 2500 uM GlcN6P; higher = faster cleavage; RNA array
In short: as §1

glucosamine-6-phosphate [4] = variants of: B1; experiment: self-cleavage kobs at 10000 uM GlcN6P; higher = faster cleavage; RNA array
In short: as §1

glucosamine-6-phosphate [5] = variants of: B1; experiment: self-cleavage kobs at 160 uM GlcN6P; higher = faster cleavage; RNA array
In short: as §1

| Variant | self-cleavage kobs at 40 uM GlcN6P (glucosamine-6-phosphate [1]) | self-cleavage kobs at 640 uM GlcN6P (glucosamine-6-phosphate [2]) | self-cleavage kobs at 2500 uM GlcN6P (glucosamine-6-phosphate [3]) | self-cleavage kobs at 10000 uM GlcN6P (glucosamine-6-phosphate [4]) | self-cleavage kobs at 160 uM GlcN6P (glucosamine-6-phosphate [5]) |
| --- | --- | --- | --- | --- | --- |
| G40C G51A | < 1e-05 s⁻¹ | < 1e-05 s⁻¹ | < 1e-05 s⁻¹ | < 1e-05 s⁻¹ |  |
| G40C G41C | < 1e-05 s⁻¹ |  |  | 6.89e-05 ± 1.3e-05 s⁻¹ |  |
| A36G A42G A52G | < 1e-05 s⁻¹ | < 1e-05 s⁻¹ | < 1e-05 s⁻¹ |  |  |
| A42C U54A | < 1e-05 s⁻¹ | < 1e-05 s⁻¹ | < 1e-05 s⁻¹ |  | < 1e-05 s⁻¹ |
| G38C A48U U65A | < 1e-05 s⁻¹ |  |  |  |  |
| G37C A52U A53U | < 1e-05 s⁻¹ |  |  |  |  |
| A36U C58G C70A | 8.19e-05 ± 2.5e-05 s⁻¹ |  | 4.59e-05 ± 2.3e-05 s⁻¹ | 5.18e-05 ± 1.5e-05 s⁻¹ | 0.000111 ± 3.1e-05 s⁻¹ |
| G43A C67G C68G | 5.46e-05 ± 1.7e-05 s⁻¹ | 0.000155 ± 4.7e-05 s⁻¹ | 6.83e-05 ± 1.7e-05 s⁻¹ | 7.38e-05 ± 1.4e-05 s⁻¹ |  |
| G41U C50A U57A | < 1e-05 s⁻¹ |  |  | < 1e-05 s⁻¹ |  |
| A42G U56A G60U | < 1e-05 s⁻¹ |  | < 1e-05 s⁻¹ | < 1e-05 s⁻¹ |  |
| U45C C58A | < 1e-05 s⁻¹ |  |  |  | < 1e-05 s⁻¹ |
| G44A C61G | < 1e-05 s⁻¹ |  | < 1e-05 s⁻¹ | < 1e-05 s⁻¹ | < 1e-05 s⁻¹ |
| A36G G38C U55A | < 1e-05 s⁻¹ |  |  | < 1e-05 s⁻¹ |  |
| A36C G41C U69A | < 1e-05 s⁻¹ |  |  |  |  |
| A39G C71A | 0.000536 ± 7.8e-05 s⁻¹ | 0.00173 ± 0.00045 s⁻¹ | 0.00277 ± 0.00061 s⁻¹ | 0.00612 ± 0.0011 s⁻¹ | 0.000645 ± 9.8e-05 s⁻¹ |
| G41U G63A | < 1e-05 s⁻¹ | < 1e-05 s⁻¹ | < 1e-05 s⁻¹ | < 1e-05 s⁻¹ |  |
| A42C G59C C67G | < 1e-05 s⁻¹ |  | < 1e-05 s⁻¹ | < 1e-05 s⁻¹ |  |
| G43U C71G | < 1e-05 s⁻¹ | < 1e-05 s⁻¹ |  | < 1e-05 s⁻¹ | < 1e-05 s⁻¹ |
| G37U G38A A42C | < 1e-05 s⁻¹ | < 1e-05 s⁻¹ | < 1e-05 s⁻¹ | < 1e-05 s⁻¹ |  |
| G41A A64C | < 1e-05 s⁻¹ | < 1e-05 s⁻¹ | < 1e-05 s⁻¹ | < 1e-05 s⁻¹ | < 1e-05 s⁻¹ |
| A39C C50G U55C | < 1e-05 s⁻¹ |  |  | < 1e-05 s⁻¹ |  |
| G38U U56G C61A C68G | 0.000276 ± 7.7e-05 s⁻¹ |  |  | 6.19e-05 ± 2.1e-05 s⁻¹ |  |
